In doi:10.1101/2024.01.09.574928:
Positions count from the first letter of the chain named. Like-named read-outs stand apart in the source and are kept apart here.

T1: SCAF4-CID (human, UniProt O95104 1-139)
T1 sequence: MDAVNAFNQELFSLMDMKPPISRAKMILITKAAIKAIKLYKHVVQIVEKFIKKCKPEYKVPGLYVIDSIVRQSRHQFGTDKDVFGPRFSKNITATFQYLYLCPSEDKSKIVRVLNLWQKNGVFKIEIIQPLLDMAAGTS

T2: SCAF8-CID (human, UniProt Q9UPN6 1-139)
T2 sequence: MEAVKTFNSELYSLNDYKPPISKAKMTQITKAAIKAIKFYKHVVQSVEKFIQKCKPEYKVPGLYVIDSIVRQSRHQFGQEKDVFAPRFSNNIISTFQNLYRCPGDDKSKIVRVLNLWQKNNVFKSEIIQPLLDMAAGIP

T3: SCAF4-CID R21A (human, UniProt O95104 1-139, R23A)
T3 sequence: T1 sequence with R23A

T4: SCAF4-CID R71A (human, UniProt O95104 1-139, R71A)
T4 sequence: T1 sequence with R71A

T5: SCAF4-CID R112A (human, UniProt O95104 1-139, R112A)
T5 sequence: T1 sequence with R112A


How the values were obtained:
SCAF4-CID [1] = molecular target: T1, SCAF4-CID; assay: SPR
SCAF4-CID [2] = molecular target: T1, SCAF4-CID; assay: competition FP
SCAF8-CID [3] = molecular target: T2, SCAF8-CID; assay: competition FP
SCAF8-CID [4] = molecular target: T2, SCAF8-CID; assay: SPR
WDR5 [5] = molecular target: T6, WDR5 (UniProt P61964 22-334); assay: competition FP
SCAF4-CID [6] = molecular target: T1, SCAF4-CID; assay: competition FP; remark: listed apart in the source
SCAF4-CID R21A = molecular target: T3, SCAF4-CID R21A; assay: fluorescence polarization
SCAF4-CID [7] = molecular target: T1, SCAF4-CID; assay: fluorescence polarization
SCAF4-CID R71A = molecular target: T4, SCAF4-CID R71A; assay: fluorescence polarization
SCAF4-CID R112A = molecular target: T5, SCAF4-CID R112A; assay: fluorescence polarization
SCAF8-CID [8] = molecular target: T2, SCAF8-CID; assay: SPR; remark: listed apart in the source
SCAF8-CID [9] = molecular target: T2, SCAF8-CID; assay: competition FP; remark: listed apart in the source
WDR5 [10] = molecular target: T6, WDR5; assay: SPR
WDR5 L240K = WDR5 L240K (UniProt P61964 22-334, L240K); assay: fluorescence polarization
WDR5 [11] = molecular target: T6, WDR5; assay: fluorescence polarization

Row | Binder | Kd (SCAF4-CID [1]) [µM] | IC50 (SCAF4-CID [2]) [µM] | IC50 (SCAF8-CID [3]) [µM] | Kd (SCAF8-CID [8]) [µM] | other results
1 | AGGTGGGT (ssDNA) [B2_8nt] | 0.297 ± 0.0481 | 1.28 ± 0.742 |  |  | 
2 | GGGGTGGGGAG (ssDNA) [SRiApt-1 (SCAF4_F3_11nt)] | 0.0584 ± 0.0058 | 0.832 ± 0.303 | 1.5 ± 0.69 |  | Kd (SCAF8-CID [4]): 0.0563 ± 0.00742 µM
3 | TGGTGGGA (ssDNA) [D1_8nt] |  | 1.27 ± 0.864 |  |  | 
4 | GGACCGGACC (ssDNA) [bivalent WDR5 lead] |  |  |  |  | IC50 (WDR5 [5]): 8.5 ± 4.25 µM
5 | GTGGG (ssDNA) [SCAF4_LS (D2_5nt)] | 0.14 ± 0.0401 |  |  | 0.0764 ± 0.00733 | IC50 (SCAF4-CID [6]): 2.75 ± 0.682 µM; Kd (SCAF4-CID R21A): 0.416 ± 0.0395 µM; Kd (SCAF4-CID [7]): 0.189 ± 0.0401 µM; Kd (SCAF4-CID R71A): 0.786 ± 0.491 µM; Kd (SCAF4-CID R112A): 0.672 ± 0.171 µM; IC50 (SCAF8-CID [9]): 1.96 ± 0.24 µM
6 | GGGTGGGA (ssDNA) [F1_8nt] | 0.0886 ± 0.0151 | 0.554 ± 0.106 |  |  | 
7 | TTAAAGGGGTGGGGAGTCAT (ssDNA) [SRiApt-3] | 0.0227 ± 0.001 | 0.285 ± 0.0266 | 0.291 ± 0.0197 | 0.0699 ± 0.014 | 
8 | GGGGGCTGGACCCCTCAACT (structured_DNA) [WMiApt-1] |  |  |  |  | IC50 (WDR5 [5]): 0.431 ± 0.134 µM; Kd (WDR5 [10]): 0.138 ± 0.0867 µM; binding result (WDR5 L240K): binds; Kd (WDR5 [11]): 0.797 ± 0.0952 µM
9 | CAGGTGGGTTC (ssDNA) [SRiApt-2 (F7_11nt_B)] | 0.0738 ± 0.0307 | 0.4 ± 0.143 | 2.69 ± 1.43 | 0.0905 ± 0.0258 | 
